This is an account of results in the Immune Epitope Database (IEDB).

One test has as its target HLA-B*39:01. As to the kind of experiment: IEDB peptide-MHC binding, purified MHC/competitive/fluorescence; filed as Kd, often an IC50 or EC50 that approximates it; ≥ and ≤ were set here for values at or beyond the usual limits of such assays.
Test [1] addresses HLA-A*02:01. Described as above.
The target in a further test is HLA-B*51:01. The description is as above.
For a further test, the target named is HLA-B*15:01. The test is described as above.
The next test has as its target HLA-B*58:01. The test is described as above.
The target of another test is HLA-C*05:01. Put plainly: IEDB peptide-MHC binding, purified MHC/direct/fluorescence; filed as Kd, often an IC50 or EC50 that approximates it; ≥ and ≤ were set here for values at or beyond the usual limits of such assays. The conditions noted are these: source organism: Vibrio antiquarius.
For the next test, the target named is HLA-C*06:02. Described as above. The conditions noted are these: source organism: Vibrio antiquarius.
The target in another test is HLA-A*02:12. As to the kind of experiment: IEDB peptide-MHC binding, purified MHC/competitive/fluorescence; filed as Kd, often an IC50 or EC50 that approximates it; ≥ and ≤ were set here for values at or beyond the usual limits of such assays.
Another test deals with HLA-A*03:01. The test is described as above.
The next test addresses HLA-A*02:11. The test is described as above.
The target of another test is HLA-A*29:02. The description is as above.
Another test addresses HLA-A*02:19. The description is as above.
The target of the next test is HLA-A*26:01. The description is as above.
A further test addresses HLA-A*02:16. Described as above.
A further test concerns the target HLA-A*23:01. Described as above.
For another test, the target named is HLA-B*57:01. The description is as above.
In the next test the target is HLA-B*15:17. The test is described as above. The conditions noted are these: source organism: Entamoeba histolytica HM-1:IMSS.
A further test addresses HLA-A*02:03. The description is as above.
The target in the next test is HLA-A*69:01. The test is described as above.
The target of another test is HLA-A*24:03. The test is described as above.
The target of a further test is HLA-B*27:03. Described as above.
Another test concerns the target HLA-A*68:02. The description is as above.
The target of a further test is HLA-B*18:01. Described as above.
Another test addresses HLA-B*46:01. The description is as above.
A further test has as its target HLA-B*15:42. The test is described as above.
For another test, the target named is HLA-B*83:01. The test is described as above.
Another test concerns the target HLA-A*68:23. The test is described as above.
For another test, the target named is HLA-C*04:01. The description is as above. The following applies: source organism: Giardia lamblia ATCC 50803.
A further test addresses HLA-B*45:06. The description is as above.
A further test has as its target HLA-C*08:02. Put plainly: IEDB peptide-MHC binding, purified MHC/direct/fluorescence; filed as Kd, often an IC50 or EC50 that approximates it; ≥ and ≤ were set here for values at or beyond the usual limits of such assays. The conditions noted are these: source organism: Giardia lamblia ATCC 50803.
For another test, the target named is HLA-A*01:01. The description is as above. The following applies: source organism: Giardia lamblia ATCC 50803.
For another test, the target named is HLA-A*32:15. Put plainly: IEDB peptide-MHC binding, purified MHC/competitive/fluorescence; filed as Kd, often an IC50 or EC50 that approximates it; ≥ and ≤ were set here for values at or beyond the usual limits of such assays. The conditions noted are these: source organism: human gammaherpesvirus 4.
Test [2] addresses HLA-A*02:01. As to the kind of experiment: IEDB peptide-MHC binding, purified MHC/direct/fluorescence; filed as Kd, often an IC50 or EC50 that approximates it; ≥ and ≤ were set here for values at or beyond the usual limits of such assays. The following applies: source organism: Human herpesvirus 4 strain B95-8.
[3] abbreviates: source organism: Vibrio antiquarius.
[4] abbreviates: source organism: Entamoeba histolytica HM-1:IMSS.
[5] abbreviates: source organism: Mycobacterium tuberculosis variant bovis BCG str. Pasteur 1173P2.
[6] abbreviates: source organism: Vibrio cholerae 2740-80.
The mark [7] stands for this setting: source organism: Human herpesvirus 4 strain B95-8.
[8] abbreviates: source organism: Giardia lamblia ATCC 50803.
Where [9] appears, read: source organism: human gammaherpesvirus 4.

As for FAMTVPLLI, the equilibrium dissociation constant (Kd) in the test with HLA-B*39:01 (setting [3]) was 0.009 µM; in the test with HLA-A*02:01 [1] (setting [3]), 0.0027 µM; with HLA-B*51:01 (setting [3]), 0.126 µM; with HLA-B*15:01 (setting [3]), at least 20 µM; with HLA-B*58:01 (setting [3]) it was 0.0014 µM; in the test with HLA-C*05:01, at most 0.001 µM. The dissociation constant Kd with HLA-C*06:02 was 0.026 µM.

As to KVSVGSYFC, the Kd with HLA-A*02:12 (setting [4]), in the test with HLA-A*03:01 (setting [4]), with HLA-A*02:11 (setting [4]), with HLA-A*29:02 (setting [4]), in the test with HLA-A*02:19 (setting [4]) and with HLA-A*26:01 (setting [4]) was at least 20 µM each time. Further, the equilibrium dissociation constant (Kd) in the test with HLA-B*39:01 (setting [4]) is at least 20 µM; with HLA-A*02:16 (setting [4]), 9 µM; with HLA-A*23:01 (setting [4]) it was at least 20 µM; in the test with HLA-B*57:01 (setting [4]) it was at least 20 µM; with HLA-B*15:17, at least 20 µM; in the test with HLA-A*02:03 (setting [4]) it was at least 20 µM. Also, the dissociation constant Kd with HLA-A*02:01 [1] (setting [4]), with HLA-A*69:01 (setting [4]), with HLA-A*24:03 (setting [4]), with HLA-B*51:01 (setting [4]), in the test with HLA-B*27:03 (setting [4]) and with HLA-A*68:02 (setting [4]) was at least 20 µM each time. Besides, the Kd with HLA-B*15:01 (setting [4]), in the test with HLA-B*18:01 (setting [4]) and with HLA-B*46:01 (setting [4]) was at least 20 µM in each case.

Take DEGFHAATV: the Kd with HLA-A*02:12 (setting [5]), with HLA-A*03:01 (setting [5]), in the test with HLA-A*02:11 (setting [5]), in the test with HLA-A*29:02 (setting [5]), with HLA-A*02:19 (setting [5]) and with HLA-A*26:01 (setting [5]) was at least 20 µM each time. The Kd with HLA-B*39:01 (setting [5]), with HLA-A*02:16 (setting [5]), with HLA-B*57:01 (setting [5]), in the test with HLA-A*02:03 (setting [5]), in the test with HLA-A*02:01 [1] (setting [5]) and in the test with HLA-A*24:03 (setting [5]) was at least 20 µM each time. The dissociation constant Kd with HLA-B*27:03 (setting [5]) is at least 20 µM; with HLA-B*15:01 (setting [5]), at least 20 µM; with HLA-B*18:01 (setting [5]), 0.0788 µM; with HLA-B*46:01 (setting [5]), at least 20 µM.

On to CERYGFPAS, for which the Kd with HLA-A*02:12 (setting [6]), in the test with HLA-A*03:01 (setting [6]), with HLA-A*02:11 (setting [6]), in the test with HLA-A*29:02 (setting [6]), with HLA-A*02:19 (setting [6]) and in the test with HLA-A*26:01 (setting [6]) was at least 20 µM in each case. Further, the Kd with HLA-B*39:01 (setting [6]), with HLA-A*02:16 (setting [6]), with HLA-B*57:01 (setting [6]), in the test with HLA-A*02:03 (setting [6]), with HLA-A*02:01 [1] (setting [6]) and in the test with HLA-A*69:01 (setting [6]) was at least 20 µM each time. For the same sequence, the dissociation constant (Kd) with HLA-B*51:01 (setting [6]) is at least 20 µM; in the test with HLA-B*27:03 (setting [6]), at least 20 µM; with HLA-A*68:02 (setting [6]) it was at least 20 µM; with HLA-B*15:01 (setting [6]), at least 20 µM; with HLA-B*18:01 (setting [6]), 0.0433 µM; in the test with HLA-B*46:01 (setting [6]), at least 20 µM.

As for VSFIEFVGW, the Kd is 0.0629 µM in the test with HLA-A*23:01 (setting [7]), 0.0249 µM with HLA-B*57:01 (setting [7]) and 0.0011 µM in the test with HLA-B*58:01 (setting [7]).

Consider MTDVDLNYY, for which the Kd with HLA-B*15:42 (setting [8]) is at least 5 µM; in the test with HLA-B*83:01 (setting [8]), at least 5 µM; with HLA-A*68:23 (setting [8]) it was 0.002 µM; in the test with HLA-C*04:01, at least 5 µM; with HLA-B*45:06 (setting [8]), at least 5 µM; with HLA-C*08:02, at least 20 µM. The same sequence yielded a dissociation constant (Kd) with HLA-A*01:01 of at most 0.001 µM.

EVFFGLSRY: the dissociation constant Kd with HLA-A*32:15 is 0.0269 µM; in the test with HLA-B*15:42 (setting [9]) it was at least 5 µM; with HLA-B*83:01 (setting [9]), at least 5 µM; with HLA-A*68:23 (setting [9]), at most 0.0001 µM; with HLA-B*45:06 (setting [9]) it was at least 5 µM; in the test with HLA-A*02:01 [2], at least 10 µM.
